Data reported in US20140004106A1.

What was measured:
[1] = biological target: 28mer peptide of the CXCR5 antigen; experiment: Antigen-ELISA; citrate 10 mM prototype C, T0
[2] = biological target: 28mer peptide of the CXCR5 antigen; experiment: Antigen-ELISA; standard, repeated values in the 3 weeks -20°C
[3] = biological target: 28mer peptide of the CXCR5 antigen; experiment: Antigen-ELISA; standard run with LA_09_004_1
[4] = biological target: 28mer peptide of the CXCR5 antigen; experiment: Antigen-ELISA; histidine 10 mM prototype B, T0
[5] = biological target: 28mer peptide of the CXCR5 antigen; experiment: Antigen-ELISA; PB 10 mM pH 7.50, after mechanical stress 350 rpm 2.5 h
[6] = biological target: 28mer peptide of the CXCR5 antigen; experiment: ELISA potency (binding); 100 mg/mL, Glycine (20), 7 days at 40°C
[7] = biological target: 28mer peptide of the CXCR5 antigen; experiment: Antigen-ELISA; PBS 155 mM, 1 h purged with N2, 24 h
[8] = biological target: 28mer peptide of the CXCR5 antigen; experiment: Antigen-ELISA; PB 5 mM pH 6.50, T0
[9] = biological target: 28mer peptide of the CXCR5 antigen; experiment: Antigen-ELISA; acetate 10 mM prototype C, T0
[10] = biological target: 28mer peptide of the CXCR5 antigen; experiment: Antigen-ELISA; Arginine 10 mM pH 6, T0
[11] = biological target: 28mer peptide of the CXCR5 antigen; experiment: Antigen-ELISA; citrate 10 mM prototype D, T0
[12] = biological target: 28mer peptide of the CXCR5 antigen; experiment: Potency (Antigen ELISA); stored +5°C, 15 months
[13] = biological target: 28mer peptide of the CXCR5 antigen; experiment: Ag-ELISA; DS in PBS, -20°C, 1 month
[14] = biological target: 28mer peptide of the CXCR5 antigen; experiment: Antigen-ELISA; Glycine 10 mM pH 7, after 1 week at +40°C
[15] = biological target: 28mer peptide of the CXCR5 antigen; experiment: Antigen-ELISA; TRIS 10 mM pH 7.5, after 1 week at +40°C
[16] = biological target: 28mer peptide of the CXCR5 antigen; experiment: ELISA potency (binding); 100 mg/mL, Sucrose (60) + Mannitol (15), 7 days at 40°C
[17] = biological target: 28mer peptide of the CXCR5 antigen; experiment: Antigen-ELISA; standard run with LA_09_28A, T0
[18] = biological target: 28mer peptide of the CXCR5 antigen; experiment: Ag-ELISA; DS in PBS, 5°C, 3 months
[19] = biological target: 28mer peptide of the CXCR5 antigen; experiment: Antigen-ELISA; Acetate 10 mM pH 5.00, after 1 week at +40°C
[20] = biological target: 28mer peptide of the CXCR5 antigen; experiment: Antigen-ELISA; PBS 155 mM pH 7.00, after mechanical stress 350 rpm 2.5 h
[21] = biological target: 28mer peptide of the CXCR5 antigen; experiment: Antigen-ELISA; Citrate 10 mM pH 5.50, after mechanical stress 350 rpm 2.5 h
[22] = biological target: 28mer peptide of the CXCR5 antigen; experiment: Ag-ELISA; DS in PBS, 5°C, 1 month
[23] = biological target: 28mer peptide of the CXCR5 antigen; experiment: Antigen-ELISA; standard run with LA_09_004_10
[24] = biological target: 28mer peptide of the CXCR5 antigen; experiment: Antigen-ELISA; PB 5 mM pH 7.50, T0
[25] = biological target: 28mer peptide of the CXCR5 antigen; experiment: Antigen-ELISA; PB 10 mM pH 6.50, after 1 week at +40°C
[26] = biological target: 28mer peptide of the CXCR5 antigen; experiment: Antigen-ELISA; Citrate 10 mM pH 5.50, T0
[27] = biological target: 28mer peptide of the CXCR5 antigen; experiment: Antigen-ELISA; standard run with LA_09_004_2
[28] = biological target: 28mer peptide of the CXCR5 antigen; experiment: Antigen-ELISA; PB 10 mM pH 7.50, after 1 week at +40°C
[29] = biological target: 28mer peptide of the CXCR5 antigen; experiment: Antigen-ELISA; citrate 10 mM prototype A, T0
[30] = biological target: 28mer peptide of the CXCR5 antigen; experiment: Antigen-ELISA; PBS 155 mM, polypropylene, 24 h +40°C
[31] = biological target: 28mer peptide of the CXCR5 antigen; experiment: Antigen-ELISA; PBS 155 mM, light stress, 24 h
[32] = biological target: 28mer peptide of the CXCR5 antigen; experiment: Ag-ELISA; DS in PBS, release
[33] = biological target: 28mer peptide of the CXCR5 antigen; experiment: Antigen-ELISA; PBS 155 mM pH 7.50, after mechanical stress 350 rpm 2.5 h
[34] = biological target: 28mer peptide of the CXCR5 antigen; experiment: Antigen-ELISA; PB 10 mM pH 7.00, after 1 week at +40°C
[35] = biological target: 28mer peptide of the CXCR5 antigen; experiment: ELISA potency (binding); 100 mg/mL, Arginine (20) + NaCl (2), 7 days at 40°C
[36] = biological target: 28mer peptide of the CXCR5 antigen; experiment: Antigen-ELISA; PBS 155 mM, polyethylene high density, 24 h +40°C
[37] = biological target: 28mer peptide of the CXCR5 antigen; experiment: Antigen-ELISA; standard run with LA_09_27B, T0
[38] = biological target: 28mer peptide of the CXCR5 antigen; experiment: Potency (Antigen ELISA); stored +5°C, 9 months
[39] = biological target: 28mer peptide of the CXCR5 antigen; experiment: Antigen-ELISA; acetate 10 mM prototype A, repeated values in the 3 weeks -20°C
[40] = biological target: 28mer peptide of the CXCR5 antigen; experiment: Antigen-ELISA; Saline 150 mM pH 6.00, after 1 week at +40°C
[41] = biological target: 28mer peptide of the CXCR5 antigen; experiment: Potency (Antigen ELISA); stored -20°C, 9 months
[42] = biological target: 28mer peptide of the CXCR5 antigen; experiment: Antigen-ELISA; histidine 10 mM prototype A, T0
[43] = biological target: 28mer peptide of the CXCR5 antigen; experiment: Potency (Antigen ELISA); stored +25°C, 6 months
[44] = biological target: 28mer peptide of the CXCR5 antigen; experiment: Antigen-ELISA; PBS 155 mM, polyethylene low density, 24 h +40°C

EC50 % [1]: 104% | EC50 % [2]: 100% | EC50 % [3]: 100% | EC50 % [4]: 118% | EC50 % [5]: 60.9% | rel. potency [%] [6]: 180% | EC50 % [7]: 89.3% | EC50 % [8]: 110% | EC50 % [9]: 142% | EC50 % [10]: 114% | EC50 % [11]: 94% | EC50 value (in comparison to reference) [12]: 114% | EC50 % [13]: 132% | EC50 % [14]: 65% | EC50 % [15]: 184% | rel. potency [%] [16]: 243% | EC50 % [17]: 100% | EC50 % [18]: 112% | EC50 % [19]: 102% | EC50 % [20]: 50% | EC50 % [21]: 79% | EC50 % [22]: 83% | EC50 % [23]: 100% | EC50 % [24]: 176% | EC50 % [25]: 78.8% | EC50 % [26]: 112% | EC50 % [27]: 100% | EC50 % [28]: 68% | EC50 % [29]: 112% | EC50 % [30]: 107% | EC50 % [31]: 72.3% | EC50 % [32]: 100% | EC50 % [33]: 71% | EC50 % [34]: 109% | rel. potency [%] [35]: 164% | EC50 % [36]: 157% | EC50 % [37]: 100% | EC50 value (in comparison to reference) [38]: 92% | EC50 % [39]: 112% | EC50 % [40]: 80.9% | EC50 value (in comparison to reference) [41]: 101% | EC50 % [42]: 174% | EC50 value (in comparison to reference) [43]: 104% | EC50 % [44]: 104%
B1: Lead CXCR5 Antibody (humanized IgG4 anti-CXCR5 antibody) (antibody, V domains shown)
VH: QVQLKESGPGLVAPSESLSITCTVSGFSLIDYGVNWIRQPPGKGLEWLGVIWGDGTTYYNPSLKSRLSISKDNSKSQVFLKVTSLTTDDTAMYYCARIVYWGQGTLVTVSA
VL: DIVMTQAAPSVAVTPGASVSISCRSSKSLLHSSGKTYLYWFLQRPGQSPQLLIYRLSSLASGVPDRFSGSGSGTAFTLRISRVEAEDVGVYYCMQHLEYPYTFGGGTKLEIKR
